Molecular target: human FcγRIa on the cell surface (transfected CHO-S cells, M0/M1 macrophages, hMDM, FcγRI effector reporter cells) (human) (UniProt P12314)
Assay: flow cytometry on CHO-S cells transiently expressing human FcγRIa, PE goat anti-human IgG F(ab')2, % PE+ cells

Sequence of human FcγRIa on the cell surface (transfected CHO-S cells, M0/M1 macrophages, hMDM, FcγRI effector reporter cells) (human) (P12314 16-374): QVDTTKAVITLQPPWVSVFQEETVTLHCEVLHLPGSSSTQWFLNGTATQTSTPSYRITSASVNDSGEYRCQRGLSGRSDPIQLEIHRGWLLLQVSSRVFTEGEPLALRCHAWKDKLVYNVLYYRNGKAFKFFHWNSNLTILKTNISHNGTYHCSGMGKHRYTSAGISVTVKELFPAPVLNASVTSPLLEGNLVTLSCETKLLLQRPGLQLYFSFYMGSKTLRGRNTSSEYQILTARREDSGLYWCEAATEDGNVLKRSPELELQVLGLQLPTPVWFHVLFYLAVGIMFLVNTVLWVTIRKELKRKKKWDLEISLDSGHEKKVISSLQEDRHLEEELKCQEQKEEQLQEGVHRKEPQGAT

With cemiplimab (antibody) as the substance, how does the EC50 (read off the curve) read?
The EC50 (read off the curve) was 0.3 µg/mL.
